Test: yeast display, Sf9 membrane polyspecificity reagent, FACS + sequencing; frameworks hold sequencing errors
Summary of the method: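 Synthetic nanobody libraries on Saccharomyces cerevisiae BJ5465 were galactose-induced for 36–48 hours, stained 1 hour at 4 °C with 10% biotinylated, detergent-solubilized Sf9 membrane reagent and enriched on streptavidin microbeads. FACS then separated cells into low and high (top ~1%) gates by anti-HA (expression) and streptavidin (reagent binding) fluorescence. Genes were colony-PCR amplified, MiSeq 2 × 250 sequenced and CDR-length filtered. A clone's polyreactivity label is that of its gate of origin.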

| Sequence | polyreactivity (PSR sort gate) |
| --- | --- |
| QDQLVESGGGLVQAGGSLRLSCAASGRTIKTYAMGWYRQAPGKVRELVAAIRRRGGSTYYADSVKGRFTISRDNAKNTVYLQMHSLKPEDTAVYYCAAGYVTYRDAHVSMDYCGQGTQVTVSS | high polyreactivity |
| QDQLVESGGGLVQAGGSLRLSCAASGRTISYYAMGWYRQAPGKERELVAAISGGGSTNYADSVKGRFTISRDNAKNTVYLQMNSLKPEDTAVYYCNARVYGVFRRRVNYWGQGTQVTVSS | high polyreactivity |
| QDQLVESGGGLVQAGGSLRLSCAASGSIFDIYAMGWYRQAPGKEREMVASIRRRGGSTYYADSVKGRFTISRDNAKNTVYLQMNSLKPEDTAVYDCNARRVWLRTTWTNWPERGYWGQGTQVTVSS | high polyreactivity |
| QDQLVESGGGLVQAGGSLRLSCAASGSIFDPYTMGWYRQAPGKERELVAAINWSGGSTSYADSVKGRFTISRDNAKNPVYLQMNSLKPEDTAVYYCNADPHGYYGYGYDYWGQGTQVTVSS | low polyreactivity |
| QDQLVESGGGLVQAGGSLRLSCAASGSIFGVYAMGWNRQAPGKERELVAAITRGGRTYYADSVKGRFTISRDNAKNTVYLQMNCLKPEDTAVYYCAALPLRERYGYWGQGTQVTVSS | high polyreactivity |
| QDQLVESGGGLVQAGGSLRLSCAASGSIFLKYVMGVYRPEPGKERELVASISSGGGTYYADSVKGRFTISRDNAKNTVYLQMNILKPEDTAVYYCARRPYRGSYAFDYWGQGTQVTVSS | low polyreactivity |
| QDQLVESGGGLVQAGGSLRLSCAASGSIFPNYAMGWYRQAPGKERELVAAISSSGGRTYYADSVKGRFTISRDNAKNTVYLQMNSLKPEDTAVYYCAADTYTSAQHEKYDYWGQGTQVTVSS | low polyreactivity |
| QDQLVESGGGLVQAGGSLRLSCAASGSIFRYYAMGWYIQAPGKEREFVASITYRGGRTYYADSVKGRFTISRDNAKNTFFLQMNSLKPEDTAVYYCAARTRAGAWTSKYHDYWGQGTQVNVSS | high polyreactivity |
| QDQLVESGGGLVQAGGSLRLSCAASGSIFSTYAMGWYRQAPGKERELVAAIDGSGGSTYADSVKGRFTISRDNAKNTVYLQMNSLKPEDTAVYYCAVDSFLVYSAVRPYDYWGQGTQVTVSS | low polyreactivity |
| QDQLVESGGGLVQAGGSLRLSCAASGSIFVYNTMGWYRPAPRKESDLVAAISSSGGSTYYADSVKGRYTISRDNAKNTVYLQMNSLKPEDTAVYYCAAVNGYQYPPNYYNGYDYWGQGTQVTVSS | low polyreactivity |
| QDQLVESGGGLVQAGGSLRLSCAASGSIFYDKAMAWYRQAPGKEREFVASITNSGSTNYADSVKGRFTISRDNAKNTVYLQMNSLKAEDTAVYFCAAEVYVDYTGYSYFDYPYDYWGQGTHVTVSS | low polyreactivity |
| QDQLVESGGGLVQAGGSLRLSCAASGSIFYRNAMGWYRQAPGKERELVAAITRGGITNYADSVKGRFTISRDNAKNTVYLQMNSLKPEDTAVYYCPRVPGRTTQYDYWGQGTQVTVSS | low polyreactivity |
| QDQLVESGGGLVQAGGSLRLSCAASGSNFDRYTMGWYRQAPGKERELLAAITRRGGSTNYADSVKGRFTISRDNAKFTVYLQMISLKPEDTALYYCARATDLNDKPSWDEYWGQGTQVTVSS | high polyreactivity |
| QDQLVESGGGLVQAGGSLRLSCAASGSNFSWNDMGWYRQAPGKERELVAAITSDDTSTYYADSVKGRFTISRDNAKNSVYLQMNSLKPEDTAVYYCAADYGNPFDYWGQGTQVTVSS | low polyreactivity |
| QDQLVESGGGLVQAGGSLRLSCAASGSSFDINAMGGYRQAPGKERELVAAISWIGGSTYYADSVKGRFTISRDNAKNTVYLKMNSLKPEDTAVYYCAKKELRQYDMEYWGQGTQVTVSS | low polyreactivity |
| QDQLVESGGGLVQAGGSLRLSCAASGSSFFSNAMGWYRPAPGKERELVAAITSTGGSTYYADSVKGRFTISRDHAKNTVYLQMNSLKPEDTAVYYCAAASRRGYYYWGQGTQVTVSS | high polyreactivity |
| QDQLVESGGGLVQAGGSLRLSCAASGSTFFRNAMGWYRQAPGKERELVASITSGGNTKYADSVKGRFTISCDNAKNTVYVQMNSLKPEDTAVYYCAAQFYHFARYSRLYNSWGQGTQVTVSS | low polyreactivity |

Reference: the nanobody polyreactivity screen of Harvey et al. (2022)
